These results are taken from US6680291.

Residue numbers refer to the chain shown, from its start.

Assay [1] deals with T1, human CNTF receptor alpha-component on MG87/CNTFR fibroblasts (human, UniProt P26992 23-342).
T1 construct: whole, on cells; Mouse fibroblast cell line transfected with the human CNTF alpha receptor gene; also called CNTFRalpha; MG87/huCNTFR
T1 sequence (looked up): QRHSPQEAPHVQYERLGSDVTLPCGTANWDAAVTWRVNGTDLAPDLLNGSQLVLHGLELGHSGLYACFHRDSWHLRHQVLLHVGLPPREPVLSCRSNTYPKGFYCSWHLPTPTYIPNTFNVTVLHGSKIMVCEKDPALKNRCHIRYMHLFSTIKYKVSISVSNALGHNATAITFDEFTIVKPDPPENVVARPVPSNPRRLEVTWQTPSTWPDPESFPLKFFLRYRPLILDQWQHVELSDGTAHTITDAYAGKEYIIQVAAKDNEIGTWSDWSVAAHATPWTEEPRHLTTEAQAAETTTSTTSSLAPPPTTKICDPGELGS
In words: competition binding experiments, data not shown; cells not given.

The target of assay [2] is T2, rat CNTF receptor on rat superior cervical ganglia (SCG) neurons (rat, UniProt Q08406 23-342).
T2 construct: whole, on cells; The neurons carry the endogenous receptor, and the other receptor components may also be present; also called rat receptor
T2 sequence (looked up): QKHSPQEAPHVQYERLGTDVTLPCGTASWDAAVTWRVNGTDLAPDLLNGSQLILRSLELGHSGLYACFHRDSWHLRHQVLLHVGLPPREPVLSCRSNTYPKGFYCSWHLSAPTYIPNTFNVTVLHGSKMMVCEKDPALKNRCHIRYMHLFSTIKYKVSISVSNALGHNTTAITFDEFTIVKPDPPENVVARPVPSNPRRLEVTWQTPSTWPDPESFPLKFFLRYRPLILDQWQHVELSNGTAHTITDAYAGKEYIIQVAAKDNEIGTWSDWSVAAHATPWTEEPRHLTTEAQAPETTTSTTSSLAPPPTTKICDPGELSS
In words: competition with 125I-rat CNTF on rat SCG neurons. The procedure: Growth medium consisted of Ham's nutrient mixture F12 with 10% heat-inactivated fetal bovine serum (Hyclone), nerve growth factor (NGF) (100 ng/ml), penicillin (50 U/ml) and streptomycin (50 µg/ml). Cultures were maintained at 37° C. in a humidified 95% air/5% CO_2 atmosphere. Ganglion non-neuronal cells were eliminated by treatment with araC (10 µM) on days 1 and 3 of culture. Cultures were fed 3 times/week and were routinely used for binding assays within 2 weeks.
(§1) Binding was performed directly on cell monolayers. Cells in culture wells were washed once with assay buffer consisting of phosphate buffered saline (PBS; pH 7.4), 0.1 mM bacitracin, 1 mM PMSF, 1 µg/ml leupeptin, and 1 mg/ml BSA. […] Non-specific binding was determined in the presence of 1,000-fold excess of unlabelled CNTF. Specific binding towards MG87/CNTFR was 80–90%. Data were analyzed using the […] program (ISI, Philadelphia, Pa.).

For assay [3], the target named is T1, human CNTF receptor alpha-component on …. In words: competition with 125I-rat CNTF on MG87/CNTFR cells. Here is the method:
as §1

B1: RPN192 (ligand)
chain: MAFTEHSPLTPHRRDLCSRSIWLARKIRSDLTALTESYVKHQGLNKNINLDSADGMPVASTDQWSELTEAERLQENLQAYRTFQGMLTKLLEDQRVHFTPTEGDFHQAIHTLMLQVSAFAYQLEELMVLLEQKIPENEADGMPATVGDGGLFEKKLWGLKVLQELSQWTVRSIHDLRFISSHQTGIPARGSHYIANNKKM
notes: Chimeric CNTF
With B1, the binding result in assay [1] was “binds”.

B2: recombinant rat CNTF (ligand)
chain: MAFAEQTPLTLHRRDLCSRSIWLARKIRSDLTALMESYVKHQGLNKNINLDSVDGVPVASTDRWSEMTEAERLQENLQAYRTFQGMLTKLLEDQRVHFTPTEGDFHQAIHTLMLQVSAFAYQLEELMVLLEQKIPENEADGMPATVGDGGLFEKKLWGLKVLQELSQWTVRSIHDLRVISSHQMGISALESHYGAKDKQM
notes: also called unlabelled rat CNTF
Broadly, the IC50 is the concentration at which inhibition is half-maximal. Low values mean higher potency, high ones lower potency. In the case of B2, the IC50 is 0.28 nM in assay [2] and 2.8 nM in assay [3].

B3: RPN189 (ligand)
chain: B2 chain with V178F, M184T, S187P, L189R, E190G, G194I, K196N, D197N, Q199K
notes: Chimeric CNTF
Take B3: the binding result in assay [1] is on record as “binds”.

B4: RPN186 (ligand)
chain: B2 chain with A4T, Q6H, T7S, L11P, M35T
notes: Chimeric CNTF
B4: in assay [1], the binding result is recorded as “binds”.

B5: recombinant human CNTF (ligand)
chain: MAFTEHSPLTPHRRDLCSRSIWLARKIRSDLTALTESYVKHQGLNKNINLDSADGMPVASTDQWSELTEAERLQENLQAYRTFHVLLARLLEDQQVHFTPTEGDFHQAIHTLLLQVAAFAYQIEELMILLEYKIPRNEADGMPINVGDGGLFEKKLWGLKVLQELSQWTVRSIHDLRFISSHQTGIPARGSHYIANNKKM
notes: also called rHCNTF; hCNTF
With B5, in assay [2], the half-maximal inhibitory concentration (IC50) was found to be 25 nM and the “fold less potent than unlabelled rat CNTF” value was found to be 90 fold. In addition, in assay [3], the 50% inhibitory concentration (IC50) worked out at 30 nM and the “fold less potent than rat CNTF” value was determined as 12 fold.

B6: RPN187 (ligand)
chain: B5 chain with T4A, H6Q, S7T, P11L, T35M
notes: Chimeric CNTF
Consider B6, for which, in assay [1], the binding result is “binds”.

B7: RPN222 (ligand)
chain: B5 chain with A53V, L67M
notes: Chimeric CNTF
For B7, the binding result in assay [1] was “binds”.

B8: RPN228 (ligand)
chain: B5 chain with Q63R
notes: Expressed in E. coli; also called RG228; rHCNTF,63QR
In the case of B8, the IC50 in assay [3] came out at 5.6 nM. This counts as single-digit nanomolar.

B9: RPN218 (ligand)
chain: B5 chain with T35M, A53V, M56V, Q63R, L67M
notes: Chimeric CNTF
With B9, in assay [1], the binding result is “binds”.

B10: RPN219 (ligand)
chain: B5 chain with A53V, M56V, Q63R, L67M
notes: Expressed in E. coli; also called CNTF RPN219
As for B10, the half-maximal inhibitory concentration (IC50) in assay [2] amounted to 0.3 nM.
